Holding throughout (test): cell-based or functional assay
Test [1] deals with T1, RSV protein F of strain B Wash/18537 (RSV B Wash/18537 (ATCC number VR-1580), UniProt P13843 26-574).
Test [2] addresses T2, RSV protein F of strain A2 (RSV A2 (ATCC number VR-1540), UniProt P03420 26-574).
Test [3] deals with T3, RSV protein F of strain Long (RSV Long (ATCC number VR-26), UniProt P12568 26-574).
The target in test [4] is T1, RSV protein F of strain B Wash/18537. This is another data set of the same source.
In test [5] the target is T2, RSV protein F of strain A2. The source holds these as a separate data set.
Test [6] has as its target T3, RSV protein F of strain Long. The source holds these as a separate data set.

T2 sequence (P03420 26-574): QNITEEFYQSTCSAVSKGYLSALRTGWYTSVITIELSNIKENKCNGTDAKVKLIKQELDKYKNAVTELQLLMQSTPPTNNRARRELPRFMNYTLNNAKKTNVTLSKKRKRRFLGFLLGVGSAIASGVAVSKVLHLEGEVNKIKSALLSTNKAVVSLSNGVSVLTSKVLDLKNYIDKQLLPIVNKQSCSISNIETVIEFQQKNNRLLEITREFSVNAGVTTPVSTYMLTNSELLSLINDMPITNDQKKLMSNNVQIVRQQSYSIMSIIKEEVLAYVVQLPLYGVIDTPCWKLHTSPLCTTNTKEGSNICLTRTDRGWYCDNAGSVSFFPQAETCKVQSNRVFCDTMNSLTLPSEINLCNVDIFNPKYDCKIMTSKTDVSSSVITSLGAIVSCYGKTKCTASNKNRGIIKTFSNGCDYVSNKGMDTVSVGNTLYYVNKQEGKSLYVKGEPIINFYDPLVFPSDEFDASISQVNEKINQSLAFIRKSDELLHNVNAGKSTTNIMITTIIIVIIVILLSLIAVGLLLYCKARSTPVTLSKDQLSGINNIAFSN
T1 sequence (P13843 26-574): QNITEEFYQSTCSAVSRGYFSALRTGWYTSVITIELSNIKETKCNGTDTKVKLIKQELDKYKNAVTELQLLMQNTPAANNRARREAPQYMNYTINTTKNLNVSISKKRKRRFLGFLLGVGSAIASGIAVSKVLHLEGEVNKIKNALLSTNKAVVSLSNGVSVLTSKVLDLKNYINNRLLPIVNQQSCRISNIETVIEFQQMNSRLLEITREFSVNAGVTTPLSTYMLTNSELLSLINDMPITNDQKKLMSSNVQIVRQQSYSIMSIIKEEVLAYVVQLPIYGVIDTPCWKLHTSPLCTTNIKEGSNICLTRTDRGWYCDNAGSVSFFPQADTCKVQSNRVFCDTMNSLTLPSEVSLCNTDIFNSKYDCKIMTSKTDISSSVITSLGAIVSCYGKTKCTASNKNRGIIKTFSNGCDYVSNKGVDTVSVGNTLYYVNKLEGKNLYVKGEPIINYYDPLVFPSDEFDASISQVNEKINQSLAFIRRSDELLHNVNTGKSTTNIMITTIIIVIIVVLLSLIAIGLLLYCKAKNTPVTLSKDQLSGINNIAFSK
T3 sequence (P12568 26-574): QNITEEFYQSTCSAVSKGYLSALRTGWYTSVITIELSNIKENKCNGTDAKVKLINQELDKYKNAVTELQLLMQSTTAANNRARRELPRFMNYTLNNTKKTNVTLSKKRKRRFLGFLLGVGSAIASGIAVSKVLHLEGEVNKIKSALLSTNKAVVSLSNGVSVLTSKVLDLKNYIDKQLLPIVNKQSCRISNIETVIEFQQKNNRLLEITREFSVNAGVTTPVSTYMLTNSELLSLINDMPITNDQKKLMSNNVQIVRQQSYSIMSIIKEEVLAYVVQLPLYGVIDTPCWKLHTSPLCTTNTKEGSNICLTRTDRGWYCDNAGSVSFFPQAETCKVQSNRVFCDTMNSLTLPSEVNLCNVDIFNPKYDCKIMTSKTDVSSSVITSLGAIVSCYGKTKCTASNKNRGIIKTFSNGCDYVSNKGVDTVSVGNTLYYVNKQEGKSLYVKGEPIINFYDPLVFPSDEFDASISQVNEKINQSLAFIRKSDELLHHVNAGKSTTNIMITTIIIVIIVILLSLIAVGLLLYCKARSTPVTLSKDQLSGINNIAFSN

B1: Palivizumab (Synagis) (antibody, V domains shown)
VH: QVTLRESGPALVKPTQTLTLTCTFSGFSLSTSGMSVGWIRQPPGKALEWLADIWWDDKKDYNPSLKSRLTISKDTSKNQVVLKVTNMDPADTATYYCARSMITNWYFDVWGAGTTVTVSS
VL: DIQMTQSPSTLSASVGDRVTITCKCQLSVGYMHWYQQKPGKAPKLLIYDTSKLASGVPSRFSGSGSGTEFTLTISSLQPDDFATYYCFQGSGYPFTFGGGTKLEIK
In the case of B1, the “PRNT EC50 with complement, RSV 18537” value in test [1] was 0.2 µg/mL. The “PRNT EC50 with complement, RSV A2” value in test [2] turned out to be 0.15 µg/mL. Moreover, the “PRNT EC50 with complement, RSV Long” value in test [3] is 0.14 µg/mL. Besides, the “EC50 value (µg/ml), PRNT (plaque reduction neutralization) against RSV strain 18537” value in test [4] stood at 0.2 µg/mL. Besides, the “EC50 value (µg/ml), PRNT (plaque reduction neutralization) against RSV strain A2” value in test [5] stood at 0.15 µg/mL. Besides, the “EC50 value (µg/ml), PRNT (plaque reduction neutralization) against RSV strain Long” value in test [6] was found to be 0.14 µg/mL.
